T1: APOA4 in human serum (human, UniProt P06727 21-396)
T1 construct: Native protein in serum of healthy humans (monomer and dimer); also called human serum APOA4; APOA4 in the specimen
T1 sequence: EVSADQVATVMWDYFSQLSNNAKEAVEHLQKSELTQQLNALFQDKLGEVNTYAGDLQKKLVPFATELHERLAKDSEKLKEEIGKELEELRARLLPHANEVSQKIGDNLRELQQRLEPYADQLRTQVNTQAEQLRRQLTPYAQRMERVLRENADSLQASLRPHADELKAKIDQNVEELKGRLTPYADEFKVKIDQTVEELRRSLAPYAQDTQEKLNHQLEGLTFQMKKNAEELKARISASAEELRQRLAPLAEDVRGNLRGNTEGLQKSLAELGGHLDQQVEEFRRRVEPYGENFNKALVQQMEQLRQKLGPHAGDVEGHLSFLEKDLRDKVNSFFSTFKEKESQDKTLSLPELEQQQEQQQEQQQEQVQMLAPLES

T2: recombinant human APOA4 in which a histidine tag is bound to the C-terminal of human APOA4 (human, UniProt P06727 21-396)
T2 construct: Secreted from Expi293F cells and purified from the supernatant; Unfractionated mix of monomer and dimer; also called rhAPOA4-His; rhAPOA-His; not shown: C-terminal histidine tag
T2 sequence: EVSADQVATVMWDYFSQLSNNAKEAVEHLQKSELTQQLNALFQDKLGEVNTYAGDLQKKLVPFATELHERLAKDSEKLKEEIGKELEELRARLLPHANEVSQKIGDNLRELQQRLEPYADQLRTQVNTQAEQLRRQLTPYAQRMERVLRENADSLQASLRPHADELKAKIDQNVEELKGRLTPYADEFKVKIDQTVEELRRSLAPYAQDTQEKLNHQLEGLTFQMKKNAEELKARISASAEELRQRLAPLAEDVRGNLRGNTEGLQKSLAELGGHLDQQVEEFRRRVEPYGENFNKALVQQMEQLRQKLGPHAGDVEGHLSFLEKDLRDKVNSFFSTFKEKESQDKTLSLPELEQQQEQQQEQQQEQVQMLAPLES

T3: refolded rhAPOA4-His monomer (human, UniProt P06727 21-396)
T3 construct: not shown: C-terminal histidine tag
T3 sequence: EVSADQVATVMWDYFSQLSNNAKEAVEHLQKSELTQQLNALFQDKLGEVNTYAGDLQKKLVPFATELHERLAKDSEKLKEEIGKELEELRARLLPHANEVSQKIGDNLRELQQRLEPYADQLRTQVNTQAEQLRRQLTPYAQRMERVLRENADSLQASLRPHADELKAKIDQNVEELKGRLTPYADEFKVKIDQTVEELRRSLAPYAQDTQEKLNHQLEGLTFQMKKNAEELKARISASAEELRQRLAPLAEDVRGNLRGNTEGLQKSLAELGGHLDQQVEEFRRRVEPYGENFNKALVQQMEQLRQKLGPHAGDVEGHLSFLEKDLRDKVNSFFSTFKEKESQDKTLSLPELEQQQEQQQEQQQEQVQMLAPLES

T4: rhAPOA4-His monomer (human, UniProt P06727 21-396)
T4 construct: also called APOA4 monomer; monomer of rhAPOA4-His; not shown: C-terminal histidine tag
T4 sequence: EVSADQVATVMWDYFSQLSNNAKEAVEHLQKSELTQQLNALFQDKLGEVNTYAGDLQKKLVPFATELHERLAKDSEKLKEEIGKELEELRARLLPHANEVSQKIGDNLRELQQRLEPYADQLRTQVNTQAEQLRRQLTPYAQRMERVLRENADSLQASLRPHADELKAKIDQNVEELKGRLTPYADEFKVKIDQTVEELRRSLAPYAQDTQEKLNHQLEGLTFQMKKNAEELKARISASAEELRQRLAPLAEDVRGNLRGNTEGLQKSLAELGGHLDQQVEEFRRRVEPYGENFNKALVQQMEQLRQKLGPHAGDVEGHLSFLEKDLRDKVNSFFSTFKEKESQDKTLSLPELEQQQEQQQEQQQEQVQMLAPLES

T5: rhAPOA4-His dimer (human, UniProt P06727 21-396)
T5 construct: also called APOA4 dimer; dimer of rhAPOA4-His; not shown: C-terminal histidine tag
T5 sequence: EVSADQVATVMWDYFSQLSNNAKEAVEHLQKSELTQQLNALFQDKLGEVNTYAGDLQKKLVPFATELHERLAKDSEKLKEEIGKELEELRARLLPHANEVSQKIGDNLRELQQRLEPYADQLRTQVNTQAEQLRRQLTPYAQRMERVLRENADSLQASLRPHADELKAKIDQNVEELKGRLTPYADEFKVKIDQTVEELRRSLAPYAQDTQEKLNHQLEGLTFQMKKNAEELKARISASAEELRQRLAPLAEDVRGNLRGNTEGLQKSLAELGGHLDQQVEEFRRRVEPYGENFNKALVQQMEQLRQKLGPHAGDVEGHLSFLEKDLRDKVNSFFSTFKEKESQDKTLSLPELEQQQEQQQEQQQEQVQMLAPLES


Key:
[1] = biological target: T1, APOA4 in human serum; test: sandwich ELISA, capture antibody
Description: (§1) Anti-human APOA monoclonal antibody No. 30 was adjusted to a concentration of 2 μg/mL with a 50 mM Tris buffer solution (pH 7.5). Antibody No. 30 solution was added to a Maxisorp cup (NUNC, manufactured by C8 Maxisorp) at 100 μL/well, the Maxisorp cup was put in a wet box and allowed to stand at 4° C. overnight, and antibody No. 30 was coated on the well. After removing antibody No. 30 solution by suction, a 50 mM Tris-buffered saline solution (pH 7.5) (blocking solution) containing 5% skim milk, 0.1% sodium azide, and 0.01% Tween 20 was added at 200 μL/well, and then the cup was left at room temperature for 2 hours or at 4° C. for 1 day or more (hereinafter, the prepared Maxisorp cup is referred to as “antibody No. 30 cup”). […] After stopping the reaction by injecting 100 μL/well of 0.5 M H₂SO₄, the absorbance was measured at a wavelength of 450 nm, and an APOA concentration was calculated using the rhAPOA4-His of a known concentration as a standard substance.

[2] = biological target: T2, recombinant human APOA4 in which a …; test: HDX-MS of rhAPOA4-His with and without antibody
Description: A solution in which about 10 μM of antibody No. 30 or antibody No. 33 were added to 10 μM of rhAPOA4-His and rhAPOA4-His and mixed therewith was diluted 20-fold with a PBS deuterium solution to start a deuteration reaction. As a control, a PBS solution was used.
After 1 minute, 10 minutes, 60 minutes, and 240 minutes at 23° C., an equivalent amount of 500 mM TCEP solution (pH 3 or less) containing cooled 2M guanidine hydrochloride was added to stop the reaction. After digesting the reaction solution with a pepsin column, peptide was separated and eluted by reversed-phase liquid chromatography using a C18 column, and LC-MS/MS measurement was performed with a mass spectrometer.
Each peptide derived from rhAPOA4-His was identified from the mass data, and the amount of deuterium exchange at each reaction time was calculated from the mass value. The peptide in which the amount of deuterium exchange was changed depending on the presence or absence of the antibody was extracted as an estimated epitope region.

[3] = biological target: T3, refolded rhAPOA4-His monomer; test: ELISA, antigen captured by anti-6xHis antibody, hybridoma supernatant
Description: Using the culture supernatant of the hybridoma obtained in (1), the reactivity to rhAPOA4-His was evaluated by ELISA as follows.
50 μL/well of a 50 mM Tris buffer (pH 7.5) containing 2 μg/mL of an anti-6×His rabbit polyclonal antibody (anti-6×His antibody, manufactured by Bethyl Laboratories) was added to a 96-well plate (manufactured by Nunc), and incubation was performed at 4° C. overnight. After removing the anti-6×His antibody solution, blocking was performed by adding 100 μL/well of 50 mM Tris-buffered saline solution (pH 7.5) containing 0.01% Tween 20 and 5% skim milk, and the plate was left at room temperature for 1 hour. After washing the well three times with Tris-buffered saline solution (pH 7.5) (washing solution) containing 0.01% Tween 20, rhAPOA4-His prepared in Example 1 or refolded rhAPOA4-His monomer prepared by the method described below was added at a concentration of 450 ng/mL (10 nM) by 50 μL/well, and incubation was performed at room temperature for 1 hour. The refolded rhAPOA4-His monomer was prepared by diluting rhAPOA4-His prepared in Example 1 two-fold with a 50 mM Tris-buffered saline solution (pH 7.5) containing 8 M urea (manufactured by Wako Pure Chemical Industries, Ltd.), leaving at room temperature for 30 minutes, and diluting 50-fold with a 50 mM Tris-buffered saline solution (pH 7.5) (reaction solution) containing 4% Block Ace (manufactured by DS Pharma Biomedical Corporation) and 0.01% Tween 20. After washing the well three times with the washing solution, the culture supernatant of the hybridoma was added to the well and incubation was performed at room temperature for 1 hour. After removing the added culture supernatant, the well was washed three times with the washing solution. A horseradish peroxidase-labeled anti-mouse IgG antibody (manufactured by Jackson ImmunoResearch Laboratories) appropriately diluted with the reaction solution was added at 50 μL/well, incubation was performed at room temperature for 1 hour, and then the well was washed 5 times with the washing solution. […]

[4] = biological target: T4, rhAPOA4-His monomer; test: statement of the description; experiment is the ELISA of Example 4 (FIG. 1)
Description: (§2) 50 μL/well of a 50 mM Tris buffer (pH 7.5) containing 2 μg/mL of an anti-6×His rabbit polyclonal antibody (anti-6×His antibody, manufactured by Bethyl Laboratories) was added to a 96-well plate (manufactured by Nunc), and incubation was performed at 4° C. overnight. After removing the anti-6×His antibody solution, blocking was performed by adding 100 μL/well of 50 mM Tris-buffered saline solution (pH 7.5) containing 0.01% Tween 20 and 5% skim milk, and the plate was left at room temperature for 1 hour. After washing the well three times with a Tris-buffered saline solution (pH 7.5) (washing solution) containing 0.01% Tween 20, the rhAPOA4-His monomer or dimer prepared in Example 2 was diluted so as to be 450 ng/mL with a 50 mM Tris-buffered saline solution (pH 7.5) (reaction solution) containing 1% Block Ace (manufactured by DS Pharma Biomedical) and 0.01% Tween 20, and added thereto at 50 μL/well. After incubating at room temperature for 1 hour, the well was washed three times with the washing solution, and then the anti-human APOA4 monoclonal antibody obtained in Example 3 was diluted with the reaction solution so as to be 1 μg/mL and added thereto at 50 μL/well. After the incubation at room temperature for 1 hour, the well was washed three times with the washing solution. Subsequently, 50 μL/well of a horseradish peroxidase-labeled anti-mouse IgG antibody (manufactured by Jackson ImmunoResearch Laboratories) appropriately diluted with the reaction solution was added, incubation was performed at room temperature for 1 hour, and the well was washed 5 times with the washing solution. 50 μL/well of a TMB (3,3′,5,5′-tetramethylbenzidine) solution was added and incubation was performed at room temperature for 15 minutes. The reaction was stopped by adding 50 μL/well of 1N H₂SO₄ in the equivalent volume to that of the TMB solution, and the absorbance of 450 nm was measured using a microplate reader (manufactured by ThermoFisher Scientific).

[5] = biological target: T5, rhAPOA4-His dimer; test: as above
Description: as §2

[6] = biological target: T1, APOA4 in human serum; test: sandwich ELISA on diluted human serum, labeled detection antibody with No. 30 as capture
[7] = biological target: T1, APOA4 in human serum; test: sandwich ELISA, labeled detection antibody
Description: as §1

binding result [1] | binding result [2] | binding result [3] | binding result [4] | binding result [5] | binding result [6] | binding result [7] | Binder
binds | binds | binds | binds | binds | – | – | anti-APOA4 monoclonal antibody No. 30 (antibody, IgG2b, V domains shown, Mouse hybridoma antibody purified with Protein A; Used as capture antibody coated on the well in the sandwich ELISAs; also called anti-human APOA4 monoclonal antibody No. 30; Anti-human APOA monoclonal antibody No. 30) VH: EVQLQQSGPELVKPGASVKISCKASGYSFIGYFMSWVKQSHGKSLEWIGRINPYNGDTFYNQKFKGKATLTVDKSSSTAHMELLSLTSEDSAVYYCGRGIIGFDYWGQGTTLTVSS VL: DIQMTQSPASLSASVGETVTITCRPSENIHSYLAWYHQKQGKSPQLLVYDATTLAEGVPSRFSGSGSGTQFFLKINSLQPEDFGSYYCQHHYVSPWTFGGGTKLEIK
– | – | binds | binds | binds | binds | – | anti-APOA4 monoclonal antibody No. 37 (antibody, IgG1, V domains shown, Mouse hybridoma antibody; also called anti-human APOA4 monoclonal antibody No. 37; HRP-labeled antibody No. 37) VH: QVQLQQSGAELVKPGASVKISCKASGYTFSNYWLNWVKLRPGKGLEWIGQIYPGDGDTNYNGKFKGKATLTADKSSSRAYMQLSSLTSEDSAVYFCARRNNYVMDYWGQGTSVTVSS VL: DIVMTQSHKFMSTSVGDRVSITCKASQDVGTSVAWYQQKLGQSPKLLINWASIRHTGVPDRFTGSGSGTDFSLTISNVQSEDLADHFCQQYSSYPFTFGSGTKLEIK
– | binds | binds | binds | binds | – | binds | anti-APOA4 monoclonal antibody No. 33 (antibody, IgG1, V domains shown, Mouse hybridoma antibody; unlabelled in HDX-MS; also called anti-human APOA4 monoclonal antibody No. 33; HRP-labeled antibody No. 33) VH: QVHLQQSGAELVRPGSSVKISCKASGYAFSIYWMNWVRQRPGQGLEWIGQIYPGDGDTTYNGKFKGKATLTADKSSNTAYMHLSSLTSEDSAVFFCARRGDYVYDYWGQGTTLTVSS VL: DIVMTQSHKLMSTSVGDRVSITCKASQDVGTAVAWYQQKPGQSPKLLIYWASTRHTGVPDRFTGSGSGTDFTLTIYNVQSEDLADYFCQQYSTYPFTFGSGTKLEIK

From patent US20210055300A1 (EISAI R AND D MANAGEMENT, published 2021)
